The results in this text go back to patent US8920798B2, “Myostatin binding agents, nucleic acids encoding the same, and methods of treatment” (Amgen Inc., priority 2002, dated 2014).

Data set [1] deals with T1, myostatin (Homo sapiens, UniProt O14793).
T1 construct: To produce mature myostatin, the pooled promyostatin was enzymatically cleaved between the propeptide and mature myostatin C terminal; made in house; host or cells: E. coli K-12 strain 2596 (ATCC #202174)
T1 sequence (O14793 267-375): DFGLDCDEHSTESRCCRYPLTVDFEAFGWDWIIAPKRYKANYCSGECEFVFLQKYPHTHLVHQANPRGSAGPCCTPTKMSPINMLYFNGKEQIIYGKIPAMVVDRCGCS
The data set is described as follows: C2C12 pMARE-luc cell based myostatin activity assay. Particulars: Table VIII; affinity matured peptibodies; a range of values is given. From the text: A myostatin-responsive reporter cell line was generated by transfection of C2C12 myoblast cells (ATCC No: CRL-1772) with a pMARE-luc construct. The pMARE-luc construct was made by cloning twelve repeats of the CAGA sequence, representing the myostatin/activin response elements (Dennler et al. EMBO 17: 3091-3100 (1998)) into a pLuc-MCS reporter vector (Stratagene cat #219087) upstream of the TATA box. The myoblast C2C12 cells naturally express myostatin/activin receptors on its cell surface. When myostatin binds the cell receptors, the Smad pathway is activated, and phosphorylated Smad binds to the response element (Maciasi-Silva et al. Cell 87:1215 (1996)), resulting in the expression of the lucerase gene. Luciferase activity is then measured using a commercial luciferase reporter assay kit (cat #E4550, Promega, Madison, Wis.) according to manufacturer's protocol. A stable line of C2C12 cells that had been transfected with pMARE-luc (C2C12/pMARE clone #44) was used to measure myostatin activity according to the following procedure.
Equal numbers of the reporter cells (C2C12/pMARE clone #44) were plated into 96 well cultures. A first round screening using two dilutions of peptibodies was performed with the myostatin concentration fixed at 4 nM. […] Myostatin activity was measured by determining the luciferase activity in the treated cultures. […]

Data set [2] has as its system CD1 nu/nu mouse model. The data set is described as follows: In vivo anabolic activity in CD1 nu/nu mouse model. Particulars: CD1 nu/nu male mice; 1 and 3 mg/kg twice weekly for 35 days; vs 1× peptibody or huFc control; FIG. 5. From the text: The CD1 nu/nu mouse model (Charles River Laboratories, Massachusettes) was used to determine the in vivo efficacy of the peptibodies of the present invention which included the human Fc region (huFc). This model responded to the inhibitors of the present invention with a rapid anabolic response which was associated with increased dry muscle mass and an increase in myofibrillar proteins but was not associated with accumulation in body water content.
A group of 10 8 week old CD1 nu/nu mice were treated twice weekly or once weekly with dosages of 1 mg/kg, 3 mg/kg and 10 mg/kg (subcutaneous injection). The control group of 10 8 week old CD1 nu/nu mice received a twice weekly (subcutaneous) injection of huFc (vehicle) at 10 mg/kg. The animals were weighed every other day and lean body mass determined by NMR on day 0 and day 13. The animals are then sacrificed at day 14 and the size of the gastrocnemius muscle determined.
In another example, the 1× mTN8-19-32 peptibody was administered to CD1 nu/nu mice in a biweekly injection of 1 mg/kg, 3 mg/kg, 10 mg/kg, and 30 mg/kg compared with the huFc control (vehicle).
CD1 nu/nu male mice (10 animals per group) were treated with twice weekly injections of 1 mg/kg and 3 mg/kg of 1× mTN8-19-7 and 2× mTN8-19-7 for 35 days, while the control group (10 animals) received twice weekly injections of huFc (3 mg/kg).

Data set [3] has as its system C57B/6 mice. The experiment in a line: Gripping strength in C57B/6 mice. Particulars: 4 month old male C57B/6 mice; s.c. 2 injections per week, 5 mg/kg per week, 30 days; measured day 18 of recovery. The data set is classed as in vivo, mouse. How it is done:
Normal age-matched 4 month old male C57B/6 mice were treated for 30 days with 2 injections per week subcutaneous injections 5 mg/kg per week of 2× mTN8-19-33, 2× mTN8-19-7, and huFc vehicle control group (10 animals/group). The animals were allowed to recover without any further injections. Gripping strength was measured on day 18 of the recovery period. Gripping strength was measured using a Columbia Instruments meter, model 1027 dsm (Columbus, Ohio).

Data set [4] in a line: In vivo pharmacokinetics in CD1 nu/nu mice. Further details: species or system mouse. Particulars: 10 mg/kg and 5 mg/kg, peptibodies without the LE sequences. The protocol:
In vivo pharmacokinetics experiments were performed using representative peptibodies without the LE sequences. 10 mg/kg and 5 mg/kg dosages were administered to CD1 nu/nu mice and the following parameters determined. Cmax (ug/mL), area under the curve (AUC) (ug-hr/mL), and half-life (hr).

Data set [5] concerns the target T1, myostatin. The data set is described as follows: BIAcore direct binding affinity assay on immobilized myostatin. Particulars: Table III. How it is done:
An affinity analysis of each candidate myostatin peptibody was performed on a BIAcore® 3000 (Biacore, Inc., Piscataway, N.J.), apparatus using sensor chip CM5, and 0.005 percent P20 surfactant (Biacore, Inc.) as running buffer.
Direct binding assays were used to screen and rank the peptibodies in order of their ability to bind to immobilized myostatin. Binding assays were carried by injection of two concentrations (40 and 400 nM) of each candidate myostatin-binding peptibody to the immobilized myostatin surface at a flow rate of 50 μl/min for 3 minutes. After a dissociation time of 3 minutes, the surface was regenerated. Binding curves were compared qualitatively for binding signal intensity, as well as for dissociation rates. Peptibody binding kinetic parameters including ka (association rate constant), kd (dissociation rate constant) and KD (dissociation equilibrium constant) were determined using the BTA evaluation 3.1 computer program (Biacore, Inc.). The lower the dissociation equilibrium constants (expressed in nM), the greater the affinity of the peptibody for myostatin.
For orientation: In SPR one partner is held on a chip, and binding of the other changes the refractive index at the surface.

B1: 2xmTN8-19-7: 2x peptibody, two mTN8-19-7 peptides in tandem on Fc (SEQ ID NO: 615) (protein)
chain: GGGGGAQLADHGQCIRWPWMCPPEGWELEGSGSATGGSGSTASSGSGSATGLADHGQCIRWPWMCPPEGWELE
modifications: Peptibody
As usually defined, the IC50 is the concentration at which inhibition is half-maximal. In data set [1], B1 gave an IC50 of 0.857 to 2.65 nM. Moreover, in data set [2], the body weight gain entry was “greater body weight gain” and the “lean carcass weight at necropsy” value was “greater”. Moreover, the “increase in gripping strength compared with control-treated mice” value in data set [3] stood at 15%. The half-life result in data set [4] was “about 106 hours”.

B2: ActRIIB/Fc: soluble receptor fusion protein actRIIB/Fc (R&D Systems) (protein)
chain: SGRGEAETRECIYYNANWELERTNQSGLERCEGEQDKRLHCYASWRNSSGTIELVKKGCWLDDFNCYDRQECVATEENPQVYFCCCEGNFCNERFTHLPEAGGPEVTYEPPPTAPT
modifications: left off: a dimerising Fc or GST
As usually defined, the Kd is the free concentration of one partner at which half of the binding sites on the other are occupied at equilibrium, for simple one-to-one binding. Lower therefore signals tighter binding. In data set [5], B2 yielded a Kd of roughly 7 nM.

B3: 2xmTN8-19-7(-LE): 2x mTN8-19-7 peptibody with the LE sequences deleted (SEQ ID NO: 617) (protein)
chain: GGGGGAQLADHGQCIRWPWMCPPEGWEGSGSATGGSGGGASSGSGSATGLADHGQCIRWPWMCPPEGWE
modifications: Peptibody
As for B3, the IC50 in data set [1] was in the range of 1.08 to 1.22 nM.
